Fraction of dimers data for 1 substance are collected here from publication doi:10.1101/116368.

For the test, the target named is STARD1^S195E mutant (human StAR domain, residues 66-285) (human) (UniProt P49675). Briefly: SEC. Background: Size exclusion chromatography separates by hydrodynamic size, large species first.

Substance “STARD1^S195E mutant (human StAR domain, residues 66-285) (from UniProt P49675 66-285) (domain or fragment)” yielded a fraction of dimers below 3%.
